Results: the supplement of paper PMC12636428

System: Saccharomyces cerevisiae
Test: transcriptional activation domain activity (GFP:mCherry ratio, weighted mean of sorted bins, harmonized to initial dataset scale) (arbitrary fluorescence ratio units); higher = stronger transcriptional activation
Details: beta-estradiol 1 µM; induction time 4 h
Method in brief: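 The listed activation activity is a read-weighted mean of bin median fluorescence, averaged across barcodes and linearly mapped onto the initial dataset scale. Barcoded tiles, fused to an estradiol-inducible synthetic transcription factor, were integrated at URA3 in yeast diploids bearing a GFP reporter. Cells were held 4 hours at 30 °C in SC with 1 uM beta-estradiol, sorted into 8 GFP:mCherry bins, and sequenced, and tiles with fewer than 50 reads were excluded.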

| Sequence | transcriptional activation domain activity |
| --- | --- |
| MPSITLTWPDRAYFYSLLVVSLLSAKLLHVFSHLTTIPIFLFLLYFPTFFFLD | 57300 |
| MPTDHASDTPSLGESSNQGAHKGYGRACLQCRQKKRKCRPSETKPDLCLLCEK | 40000 |
| MPTITLAWPERAYFYSLLVVSLLSAKLLHVFSHLTTIPIFLFLLYFPTFLFLD | 59600 |
| MPTLLVSLCSFFPWPLFLSFLFLVFHTFASLVIVQKSHFILSYILIMHLSFFA | 46300 |
| MPTNFTKEGRTCTVTYKIQVHMIRPAVFIDFITLWIRQTFGMIVMVVTAELPR | 47800 |
| MPTPGLDHSLQMMPDGNSGVNPSLLGDFDLFSASAYQAELDYLSFPFMDSFLA | 140000 |
| MPTPSFFCFFLLFLSPMLNMRGDTFTAPLIFSFFVFFFFFFMLSLHFLLVFFS | 46400 |
| MPTTSHSLFLRYVFLFVAWLVFREVFALMGFFLLLIFLIPKIVKVPFFFFFFL | 55000 |
| MPTVRCLLPFVLFTGLLYRILLSLSFLLVLPFLILLFSSPSLLSCFLLLAYIL | 57000 |
| MPVGIVLQLIAAVQYHLYTAMLFTWTDYKTIFFPYLLKCCLWVWVHQLLCNVS | 56900 |
| MPVLFVFFSSFHSFIFLFFFYYGWLKVVIQVVMRLWGYKSLVGFFFLHGLLVC | 66500 |
| MPVLPKSSSTKRAGAPKAKGAVRAKSGCYTCRIRRKKCDENPDDAGQCQTCVR | 36600 |
| MPVLPYFFAKFIIDIPRIVIGGSMFSLALVVFFPYQQPFVRMYGMVIILYFYS | 51200 |
| MPVVKLMAEPFLFLFLFYLSVLALAFFYFFYFFYFFFLKILPGMMVFSSLGCF | 55500 |
| MPWFIVCPLIFCSFGPFDALLSVLFFFYEHHFLLVIFPLTLIMQFSFLLSYFS | 53100 |
| MPWGGWGYIFDVTRPFFFCFISCLFLFYICLLGFLVGFFCFSFFFDLFIFFMT | 24600 |
| MPYKKGHFVWILVYAIAVQSGNVMKKRVGVVTLVLKMPSRKILPPWSTLVCKT | 47300 |
| MQADNLPFMCVCPYFLSTYSSSLSLVFPLFFFLCLFLLFPFFAFLLLLSLFSC | 44500 |
| MQAGIHNVLFHFRNKWWIQIIGSGLPYFVLLAGRGLMCIFLFLIFRLRRCLCV | 67300 |
| MQASFIFLSFTSGVIHTYILYLDLVAYFLLSLGGFVLIIGFWRWGFFFSFFPF | 55400 |
| MQCIFVHILLVFIINTFYLVHRLFSSSFLSSFTLFCFLYTHYSFLFFRLIHIS | 69500 |
| MQCSISYWRQNQVTDNFALFYIIPCFLSILLYYSSFQSYYEQRAWRLILFFYF | 56700 |
| MQDGEHEQRLNGRKLALEAENYIIISTRLQKPCIGVVQVLLLLIIMRTISASD | 79600 |
| MQETNGNTTAADQGSRHDVPPPRRPTRSRNGCMTCRRRKVRCDEQRPRCSHCE | 8920 |
| MQFDIGPFVFFGLGWLSAIYLLLFPFFFFFFRLFPSLEFWLDLALIFMFRVLH | 46300 |
| MQFSLLFFFCLLFPPLLLFLCSFFFSFLFLEIFGFVNCLGFRRSHFQRQALLV | 54500 |
| MQGEETIASKTNKPRQRRAHTRSRTGCSECRNRRVRCDEQKPQCKNCINSQRI | 24100 |
| MQGGRLVIYLYYFLMEVFNVLFFLFLFRCWSLLPSALGGGLCYLFLVWGLLFC | 67000 |

| Sequence | transcriptional activation domain activity |
| --- | --- |
| MQGSGKLSGLIFLSCFFSLLFFFFSFLFFYFFLLSNQLLFFCPNLVLDVALFT | 18000 |
| MQGWVHALFSFFFNLIVVALLSCLCFIHLSSSYYNLCPVLYLTTPCLFIRFYI | 62000 |
| MQIQALAFPSYCQNTLFMPCTSIVCLDFFFLLHIFPLVPRSLDVFFLFLLVHL | 76400 |
| MQIVLYLHCKVCFIYFHCLLLDFRSFLHIQRPQEPWIAYIFPTTACVSPQTRR | 55300 |
| MQLDGVQLGFVGLTPFFRERHTECPVFILVVGHSCKLLLIMHIILVIHLLDCR | 52900 |
| MQMIFFLSLTFLILLFFFFFFFSSFPFPFTIITFYISNPLFYFVTLLVSITYF | 19100 |
| MQMKMSESMSILILMLIMLELGWDVVDPCFFFTPFTPFPILPSFLPSFFFLFL | 54500 |
| MQNKIVQALNWVCVDLNPPLTSFYFSPFFSFFPTLSSCFNTPLFFFLFSSFFF | 61800 |
| MQQLFTFGSLFFPSFHPFFFFFFFFCHPSFLFFFLPSFLPFFLFFFLPSFLPF | 58000 |
| MQSGHLFRLFGIAKTVLFFFSSVSCSLLHFLFSSFPFPIFPFVLSICYVFHFF | 46600 |
| MQSKAFSFLLSHISLIGFFFTFYEVLLLQFWFLFSLIFIPSYLLMLIVHLFLL | 49000 |
| MQTKVFVFPLFLHYLYCVIFHLLWILFGIAFIFSLVSIIIYLLIVFAHLFHFV | 66700 |
| MQTSLLPLFSFLSFLFLLVFLLLLSLYLAFSHVAFSFLSLFFCYISFFLFYSF | 26200 |
| MQVISYIFFCHVKYLFFVYSLHVVSNTNLSSYMLFNWLYLILLRLFVYIIYFI | 71300 |
| MQVSNLLLLVLNLCCVVFLLINLDLHSCFFKLILFIFTSCLFNHPLPFQFIFT | 51700 |
| MQWAGLMFFRCSICLLAFSVILMFGLVWYFFALCVVNRLSTICFVFWMLLSFL | 42700 |
| MQYVANATPVTCDYDGFDGSGMLVIPNIAIYLSATSGLACIIKCFEILWWYMA | 65000 |
| MRAAMDICVLIKMPCPLLKHTPFFTCAVTMAAVVYLSYWSFIATETGDDVIRE | 46700 |
| MRAAPKYITFFLCYGSWFTSMTRGLSCPCWVYFIGHVSIVVVVVFFTFVYIHG | 38800 |
| MRAKNLTWTTLIYFSTVLWFVGDLVTNNHVRLVGVWSECKLWILWFRVFFVYV | 84300 |
| MRAVDIPSLAFNAVGVSNHGIQQMPVAEFATVMKSLVTILLKSMPLDKEKRYQ | 38900 |
| MRCLRSVLGVFFLSYSLYILHCIFCLISYPLAISFMNLSCLGWFHGFWGFIYF | 36000 |
| MRCPFHLLHTTSGLVYTFYLLFWVLVDTLMFYFFFPSCMSLGSVGHLLFISCC | 67600 |
| MRDGKQGMREKKRKEEGESKSEKKNGKGGRMGKRGGKGKGRKREEQRRVGIEK | 28100 |
| MRDIIGISIFLFFSLFLFYLSFCFCMRNVNLSFSLFILTLIDCLTDLLIMVPI | 60300 |
| MRDISTLTVCCPLLFFLNLLHFLCFSLCFSLTYFINCLTFLLFLYISFFIKLF | 42800 |
| MRDNQYPPYLLSVVHFTCQPPFGVRNLHSPIFILFQYVPHVLLIHFSSFVIFF | 64300 |
